The nanobody polyreactivity screen of Harvey et al. (2022)

Assay: yeast display, Sf9 membrane polyspecificity reagent, FACS + sequencing; frameworks hold sequencing errors
How it was run: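 A synthetic nanobody library was expressed on Saccharomyces cerevisiae BJ5465 by galactose induction for 36–48 hours. The library was stained for 1 hour at 4 °C with 10% biotinylated, detergent-solubilized Sf9 membrane reagent and enriched with streptavidin microbeads before FACS. Low and high (top ~1%) gates were set on anti-HA fluorescence for expression and streptavidin fluorescence for reagent binding, and each polyreactivity label reflects the gate of origin.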
For “QVQLVESGGGLVQAGGSLRLSCAASGFVWYTMGWYRQAPGKERELVADITYRGGSTYYADSVKGRFTISRDNAKNTVYLQMNSLKPEDTAVYYCAAKPHWYWRYEYWGQGTQVTVSS”, the “polyreactivity (PSR sort gate)” value was “high polyreactivity”. With “QVQLVESGGGLVQAGGSLRLSCAASGFYYGMGWYRQAPGKERELVAAISRGGSTYYADSVKGRFTISRDNAKNTVYLQMNSLKPEDTAVYYCAATYRSLYGSRMGYWGQGTQVTVSS” the “polyreactivity (PSR sort gate)” value was “high polyreactivity”. With “QVQLVESGGGLVQAGGSLRLSCAASGFYYYVMVWYRQAPGKERELVAGITASGGSTYADSVKGRFTISRDNAMYTVYLQMNSLKPEDTAVYYCAAGFVGTNYTLHGFSYEYWGQGTQVTVSS” the “polyreactivity (PSR sort gate)” value was “low polyreactivity”. With “QVQLVESGGGLVQAGGSLRLSCAASGGIFAPNAKGWYRQAPGKEREFVAAISTGGGSTRYADSVKGRFTISRDNAKYTVYLQMNSLKPEDTAVYYCAATRVGVRRMDYWGQGTQVTVSS” the “polyreactivity (PSR sort gate)” value was “low polyreactivity”. With “QVQLVESGGGLVQAGGSLRLSCAASGGIFAPYAMGWYRTAPGKERELVAAISSSDGSTYYADSVKGRFTISRDNAQNTVYLHMNSLKTVDTAVYYCAADYREDYGYWGEGTQVTVSS” the “polyreactivity (PSR sort gate)” value was “low polyreactivity”. In the case of “QVQLVESGGGLVQAGGSLRLSCAASGGIFAQYAMGWYRQAPGKEREFVATISTSGGSTYYADSVKGRYTISRDNAKNTVYLQMNSLKPEDTAVYYCARYSYRGTNVRYDYWGQGTQVTVSS”, the “polyreactivity (PSR sort gate)” value is reported as “high polyreactivity”. With “QVQLVESGGGLVQAGGSLRLSCAASGGIFARYAMGWYRQAPGKEREFVAAISFSGASTYYADSVKGRFTISRDNAKNTVYLQMNSLKPEDTAVYYCAAYWDAEGRRYTRLDYWGQGTQVTVSS” the “polyreactivity (PSR sort gate)” value was “low polyreactivity”. For “QVQLVESGGGLVQAGGSLRLSCAASGGIFARYVKGWYRQAPGKERELVAAISLSGGSTYYADSVKGRFTISRDNAKKTVYLQMNSLNPEDTAVYYCAAIRKKRLTYDYWGQGTEVTVSS”, the “polyreactivity (PSR sort gate)” value was “high polyreactivity”. In the case of “QVQLVESGGGLVQAGGSLRLSCAASGGIFAVNVMGWYRQAPGKERELVAAITSTGSTYYADSVKGRFTISRDNAKNTVYLQMNSLKPEDTAVYYCASDYVYYDSYDDTVFGYEYWGQGTQVTVSS”, the “polyreactivity (PSR sort gate)” value is reported as “high polyreactivity”. For “QVQLVESGGGLVQAGGSLRLSCAASGGIFAYYVMGWYRQAPGKERELVASISSGGGTYYADSVKGRFTISRDNAKNTVYLQMNSLKPEDTAVYYCAARWLRYVYPDGHLFWYDYWGQGTQVTVSS”, the “polyreactivity (PSR sort gate)” value was “high polyreactivity”. For “QVQLVESGGGLVQAGGSLRLSCAASGGIFDDYAMGWYRQAPGKERELVAAISSSGGSTYYADSVKGRFTISRDNAKNTVYLQMNSLKPEDTAVYYCNADRRRRFGYWGQGTQVTVSS”, the “polyreactivity (PSR sort gate)” value was “high polyreactivity”. With “QVQLVESGGGLVQAGGSLRLSCAASGGIFDENAMGWYRQAPGKARELVAGITQRGASTNYADSVKGRFTISRDNAKNTVYLQMNSLKPEDTAVYYCDADVGTVISYEYWGQGTQVTVSS” the “polyreactivity (PSR sort gate)” value was “low polyreactivity”. With “QVQLVESGGGLVQAGGSLRLSCAASGGIFFTYAMGWYRQAPGKERELVAGISWSDGSTYADSVKGRFTISRDNAKNTVYLQMNSLKPEDTAVYYCNKRIYDLFLSPAAGGYWGQGTQVTVSS” the “polyreactivity (PSR sort gate)” value was “low polyreactivity”. In the case of “QVQLVESGGGLVQAGGSLRLSCAASGGIFFYSAMGWYRQAPGTERELVAAISYSGGSTYYADSVKGRFTISRDIAKNTVYLQMISLKPEDTAVYYCAADVYSESKSGIYEYWGQGTQVTVSS”, the “polyreactivity (PSR sort gate)” value is reported as “low polyreactivity”. For “QVQLVESGGGLVQAGGSLRLSCAASGGIFGGYAMGWYRPAPGKEGELVAVITSGGSTYYADSVKGRFTISRDNAKNTVYLQMNSLKPEDTAVYYCAALGQYQTVYSDGYDYYYWGQGTKVTVSS”, the “polyreactivity (PSR sort gate)” value was “low polyreactivity”. For “QVQLVESGGGLVQAGGSLRLSCAASGGIFGGYAMGWYRQAPGKEGELVPVITSGGSTYYADSVKARFTISRDNAKNTVYLQMNSLKPEDTAVYYCAADGHSYSYSTYDYWGQGTQVTVSS”, the “polyreactivity (PSR sort gate)” value was “low polyreactivity”. For “QVQLVESGGGLVQAGGSLRLSCAASGGIFGHNAMGWYRQAPGKERELVAAISYTGGSTYYADSVKGRFTISRDNAKNTVNLQMNSLKPEDTAVYYCNAVQRRFRYPFDYWGQGTQVTVSS”, the “polyreactivity (PSR sort gate)” value was “low polyreactivity”. In the case of “QVQLVESGGGLVQAGGSLRLSCAASGGIFGIYAMGSYRQAPGKERELVAAINGGTSTYYADSVKGRFTISRDNAKNTVYLQMNSLKPEDTAVYYCAADWRYLYYALDYWGQGTQVTVSS”, the “polyreactivity (PSR sort gate)” value is reported as “low polyreactivity”. For “QVQLVESGGGLVQAGGSLRLSCAASGGIFGRYAMGWYIQAPGKERELFAAISKRGGSTYYADSVKGRFTISRDNAKNTVYLQMNSLKPEDTAVYYCNAYRLSYTTFGKADGDYWGQGTQVTVSS”, the “polyreactivity (PSR sort gate)” value was “high polyreactivity”. For “QVQLVESGGGLVQAGGSLRLSCAASGGIFGWYTMGWYRQAPGKERELVAAINFSGSRTYYADSVKGRFTISRDNAKNTVYLQMNSLKPEDTAVYYCNAVYHQFREEYWGQGTQVTVSS”, the “polyreactivity (PSR sort gate)” value was “high polyreactivity”. With “QVQLVESGGGLVQAGGSLRLSCAASGGIFGYYAMGWYRPAPGKERELVAAINYSGGSTYYADSVKGRFTISRDNAKNTVYLQMNSLKPEDTAVYYCNAVVRDYTFRYYYWGQGTQVTVSS” the “polyreactivity (PSR sort gate)” value was “low polyreactivity”. For “QVQLVESGGGLVQAGGSLRLSCAASGGIFHHYAMGWSRPAPGKERELVAGISWRGTSTYYADSVKGRFTISRDNAKNTVYLQMNSLKPEDTAVYYCARVYPYSVGYNSGHPASYDYWGQGTQVTVSS”, the “polyreactivity (PSR sort gate)” value was “high polyreactivity”. In the case of “QVQLVESGGGLVQAGGSLRLSCAASGGIFHSNAMGWYRQAPGKERELVAAISYSGGSTYYADSVKGRFTISRDNAKNTVYLQMNSLKPEDTAVYYCAKRYYGSPQLRYYYWGQGTQVTVSS”, the “polyreactivity (PSR sort gate)” value is reported as “high polyreactivity”. For “QVQLVESGGGLVQAGGSLRLSCAASGGIFIGYAMGWYRQAPGKERELVARIRSSGGTTYYADSVKGRFTISRDNAKNTVYLQMNSLKPEDTAVYYCAKRTSSSWAYGPYYYWGQGTQVTVSS”, the “polyreactivity (PSR sort gate)” value was “high polyreactivity”. For “QVQLVESGGGLVQAGGSLRLSCAASGGIFIYNAMGWYRQAPGKEREFVAAINISGGNTYYADSVKGRFTISRDNAKNTVYLQMNSLKPEDTAVYYCAKSGRYGFWGQGTQVTVSS”, the “polyreactivity (PSR sort gate)” value was “high polyreactivity”. With “QVQLVESGGGLVQAGGSLRLSCAASGGIFKRYAMGWYRQEPGKERELVAAISGRGGGTYYADSVKGRFTISRDNAKNTDYLQMNSLKPEDTAVYYCNARLSWSAFGYWGQGTQVTVSS” the “polyreactivity (PSR sort gate)” value was “high polyreactivity”. With “QVQLVESGGGLVQAGGSLRLSCAASGGIFKYYAMGWYRLAPGKERELVAAITSGGNTNYADSVKGRFTISRDNAKNTVYLQMNSLKPEDTAVYYCAARSISRRTWQYNYWGQGTQVTVSS” the “polyreactivity (PSR sort gate)” value was “high polyreactivity”. In the case of “QVQLVESGGGLVQAGGSLRLSCAASGGIFLFNAMGWYRQAPGKERELVAAITDGGSTYYADSVKGRFTISRDNAKNTVYLQMNSLIPDDTAVYYCNKDSSFWGYYIAQVNERDYWGQGTQVTVSS”, the “polyreactivity (PSR sort gate)” value is reported as “low polyreactivity”. In the case of “QVQLVESGGGLVQAGGSLRLSCAASGGIFLSNAMGWYRQAPGKERELVAAISRSGGSTYYADSVKGRFTISRDNAKNTVYLQMNSLKPEDTAVYYCAARWTRNYGMNYWGQGTQVTVSS”, the “polyreactivity (PSR sort gate)” value is reported as “high polyreactivity”. In the case of “QVQLVESGGGLVQAGGSLRLSCAASGGIFNYYAMGWYRQAPGKERELVAAMTSAGSTYADSVKGRFTISRDNATNTVSLQMNILKPEDTAVYYCNAVGVVVKFGYYLIGYAKWYDYWGQGSQVTVSS”, the “polyreactivity (PSR sort gate)” value is reported as “low polyreactivity”. In the case of “QVQLVESGGGLVQAGGSLRLSCAASGGIFNYYVMGWYRQAPGIERELVAAISNGGSPNYADSVKGRFTISRDNAKNPVYLQMNSLKPEDTAVYYCAAHTYSELSWLVVYPYDYWGQGTQVTVSS”, the “polyreactivity (PSR sort gate)” value is reported as “low polyreactivity”. For “QVQLVESGGGLVQAGGSLRLSCAASGGIFPFYAMGWDRQAPGKERELVAVITSSGGSTFYSDSVKGRFTISRDNAKNTVYLQMNSLKPEDTAVYYGNARRVSREIWYGATGNDYWGQGTQGTVSS”, the “polyreactivity (PSR sort gate)” value was “low polyreactivity”. With “QVQLVESGGGLVQAGGSLRLSCAASGGIFPFYAMGWYRQAPGKERELVAAISGIGDSTYYADSVKGRFTISRDNAKNTVYLQMNSLKPEDTAVYYCAREFSDGLSGKFDYWGQGTQVTVSS” the “polyreactivity (PSR sort gate)” value was “low polyreactivity”. In the case of “QVQLVESGGGLVQAGGSLRLSCAASGGIFPTYVMGWYRQAPGKERELVAAIDRNGTSTTYADSVKGRFTISRDYAKNTVYLQMNSLKPEDTAVYYCAAGYNDQTSAYDYWGQGTQVTVSS”, the “polyreactivity (PSR sort gate)” value is reported as “low polyreactivity”. With “QVQLVESGGGLVQAGGSLRLSCAASGGIFRFNAMAWYRQAPGKERELVAAINRGGSTDYADSVKGRFTSSRDNAKNTVYLQMNSLKPEDTAVYYCAADYEYRPKTRDGYYWGQGTQVTVSS” the “polyreactivity (PSR sort gate)” value was “low polyreactivity”. In the case of “QVQLVESGGGLVQAGGSLRLSCAASGGIFRGYAMGWYRQAPGKERELVATSRSSGRTNYADSVKGRFTISRDNAKNTVYLQMNSLKPEDTAVYFCNKRRWWQYDSWGDWVLGGDDYWGQGTQVTVSS”, the “polyreactivity (PSR sort gate)” value is reported as “low polyreactivity”. For “QVQLVESGGGLVQAGGSLRLSCAASGGIFRIYAMGGYRQAPGKERELVAAISRSGGTTYYADSVKGRFTISRDNAKNTVDLQMNSLKPEDTAVYYCNARYYQSRHVNDVPNYYWGHGTQVTVSS”, the “polyreactivity (PSR sort gate)” value was “high polyreactivity”. In the case of “QVQLVESGGGLVQAGGSLRLSCAASGGIFRIYAMGWYRQAPGKERELVASISRSGGRTYYADSVKGRFTISRDNAKNTVYLQMNSLKPEDTAVYYCAVSLQGYNQVDYYYWGQGTQVTVSS”, the “polyreactivity (PSR sort gate)” value is reported as “high polyreactivity”. In the case of “QVQLVESGGGLVQAGGSLRLSCAASGGIFRVYAMGWYRQAPGKERELVAAISRSGSSTYYADSVKGRFTISRDNAKNTVYLQMTSLKPEDTAVYYCNAYSQYWLGNNYWGQGTQVTLSS”, the “polyreactivity (PSR sort gate)” value is reported as “high polyreactivity”. With “QVQLVESGGGLVQAGGSLRLSCAASGGIFRYSAMGWYRQAPGKERELVATDGDTYYADSVKGRFTISRDNAKNTVYLQLNSLKPEDTAVYYCAAEPVRYYAMEYWGQGTQVTVSS” the “polyreactivity (PSR sort gate)” value was “low polyreactivity”. In the case of “QVQLVESGGGLVQAGGSLRLSCAASGGIFRYYAMGWYRQAPGKERELVAAISRSGDSTYYADSVKGRFTISRDNAKNTVYLQMNSLKPEDTAVYYCAATRLYWKIFYGDGDYWGQGTQVTVSS”, the “polyreactivity (PSR sort gate)” value is reported as “high polyreactivity”. In the case of “QVQLVESGGGLVQAGGSLRLSCAASGGIFSPNAMGWYRQAPGKERELVAGITFSGGSTYYADSVKGRFTISRDNAKTTVYLQMNSLKPEDTAVYYCNARVPPQGWGPWKAFDYWGQGTQVTVSS”, the “polyreactivity (PSR sort gate)” value is reported as “low polyreactivity”. In the case of “QVQLVESGGGLVQAGGSLRLSCAASGGIFSRNAMGWSRQAPGKERELVAAISSGGSTYYADSVKGRFTISRDNAKNTVYLQMNTLKPEDTAVYYCAAKRSGQRTLLGYWGQGTQVTVSS”, the “polyreactivity (PSR sort gate)” value is reported as “high polyreactivity”.
